Measurements published in article doi:10.1101/2025.03.06.641855.

How the values were obtained:
[1] = molecular target: wt-OppA, periplasmic binding protein of the oligopeptide permease (Opp) transporter (E. coli (K12)) (UniProt P23843); experiment: MST
[2] = molecular target: OppA-ev2 (evolved OppA variant with seven mutations) (E. coli (K12)) (UniProt P23843); experiment: MST

Row | Substance | Kd [1] [µM] | Kd [2] [µM]
1 | G-SisoK, isopeptide-linked tripeptide | 50 | 37
2 | SisoK, isopeptide-linked dipeptide | 300 | 300
3 | linear GSK tripeptide | 71 | 275
